From patent US20230296611A1 (INNATE PHARMA, published 2023)

Experiments:
human MICA*008 = biological target: T1, human MICA*008 (human, UniProt Q29983 24-297); test: IHC with hybridoma supernatant on FFPE C1R MICA*008 cell pellet, Ventana, CC1 or CC2
T1 construct: C1R-neo cells transfected with human MICA*008, formalin fixed and paraffin embedded (or live cells for flow cytometry); transmembrane and cytoplasmic parts are not in the entry; also called C1R MICA*008 cells
T1 chain: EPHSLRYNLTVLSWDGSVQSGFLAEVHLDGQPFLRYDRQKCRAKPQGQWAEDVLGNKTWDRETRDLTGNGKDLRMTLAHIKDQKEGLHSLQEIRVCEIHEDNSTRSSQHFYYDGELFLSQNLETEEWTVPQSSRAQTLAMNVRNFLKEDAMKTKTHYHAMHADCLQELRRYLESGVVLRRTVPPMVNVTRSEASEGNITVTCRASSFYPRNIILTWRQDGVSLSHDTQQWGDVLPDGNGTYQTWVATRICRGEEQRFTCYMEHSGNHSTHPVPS
Method: (§1) In parallel to the phenotyping by flow cytometry, the cell lines were fixed in formalin and embedded in paraffin. Briefly, 20×10⁶ to 40×10⁶ cells were fixed for 1 hour with formalin 4%. The cells were washed twice in PBS, and there were resuspended in Histogel. The cell pellets were dehydrated and embedded in paraffin. For each cell line, several FFPE cell pellets were made A mix of cells (C1R MICA*008 (15.10⁶ cells) and C1R MICB (15.10⁶ cells)) was also were embedded in paraffin. Sectioning of FFPE cell pellets was performed and MICA/B staining done by IHC. Briefly, 5 μm-thick sections were incubated dewaxed, submitted to an antigen retrieval step and incubated with immune or non-immune sera, hybridoma supernatants, chain combinations Abs or purified and commercial Abs followed by a signal amplification step. Enzymatic revelation was finally performed using 3, 3′-diaminobenzidine (DAB). For the IHC stainings with the mouse sera, staining interpretation was done by attributing a percentage of stained cells in the pellet section as well as an intensity score using the following criterion: “−”: negative staining; “+”: weak positive staining; “++”: intermediate IHC signal in intensity and “+++”: strong positive staining. […]

human MICA*001 = biological target: T2, human MICA*001 (human, UniProt Q29983 24-297); test: IHC with hybridoma supernatant on FFPE C1R MICA*001 cell pellet, Ventana, CC1 or CC2
T2 construct: C1R-neo cells transfected with human MICA*001, formalin fixed and paraffin embedded (or live cells for flow cytometry); also called C1R MICA*001 cells
T2 sequence: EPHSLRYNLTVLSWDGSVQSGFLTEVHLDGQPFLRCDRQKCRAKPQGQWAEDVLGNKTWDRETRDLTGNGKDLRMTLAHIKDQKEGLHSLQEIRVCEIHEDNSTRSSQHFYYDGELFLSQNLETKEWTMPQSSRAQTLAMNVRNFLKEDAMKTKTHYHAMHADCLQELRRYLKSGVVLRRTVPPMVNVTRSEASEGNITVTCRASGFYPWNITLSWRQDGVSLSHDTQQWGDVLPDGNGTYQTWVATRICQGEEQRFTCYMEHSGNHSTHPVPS
Method: as §1

B1: antibody 12C9 (antibody, V domains shown)
VH: EIQLQQSGPELEKPGASVKISCKASGYAFTGYYMNWMKQRNGKSLDWIGTINPYYGSSTYNQKFKGKATLTVDESSSTAYMQLTSLTSEDSAVYYCARVDGDHGYFDYWGRGTTLTVSS
VL: DVVMTQTPLSLPVSLGDQASISCRSSQSLVHSNGNTYLHWYLQKPGQSPKLLIYKVSTRFSGVPDRFSGSGSGTDFTLKISRVEAEDLGVYFCSQSTHVPFTFGSGTKLEIK
notes: Produced as a mouse antibody with mouse gamma1 chain (mIgG1 isotype)
B1: binds (human MICA*008); binds (human MICA*001).
